The results in this text go back to US20250241939A1, “NUCLEIC ACID-BASED DELIVERY SYSTEMS AND USES THEREOF” (Kodikaz Therapeutic Solutions, Inc., priority 2022, published 2025).

The chains are these.
B1: 20 (nucleic acid, listed as Homo sapiens)
chain: TTCTTCTCACGGAGTGAAACTTTTCCTTTGATTGAGCAGTTTCGAAACTCTCTTTTTGTAAAATCTGCAAGTGAACATTTGGAGTGCTTTGTGGCCTATGATAGAAAAGGAAATATTTTCACTTAAAATCTAGACAGAAGCAATCTGAGAAACTTCTTTGTGATGTTTGTATTCATCTTACATAGTTAAACCTTTCTTTTGATTGAGCAGTTTTGAAACTCTCTTTTTGTCGAATCTGTAAGAGGACATTTGGAGTGCTTTCAGGCCTATGGTGAAAAAGGAAGTATCTTCTCATGAAAACTAGACAGAAGAATTCAGACAAACTTCTTTGTGATGTGTGCATTTATCTCACAGACTTGAACCTTTCTTTTGATTGAGCAGTTTGAAACACTCTTTTTGTAGAATCTGCAAGTGGACATTTGGAGCACGTGGAGGCCTATAGTGGAAATGGAAATGTCTTCACACTAAAAACTAGACAGAAGAATTCTGAGAAACTTCTTTGTGATCTTTGCATTCATCTCACAGAGTTGAACCTTTCTTTTCATTGAGCAGTTTGAAAACACTCTTTTTGTAGAATCGGCAAGTGGACATTTGGAACGCATTGCAGACTATGATGGAAAAGGAAATATCTCCA
B2: 22 (nucleic acid, listed as Homo sapiens)
chain: CAGCGCAAGTAATATATCCTGGAATTGGAAGCAGAATGGGAACTATGGACTCAGTGAAGATTGTTCTGGACATTATTTGATTCTTCTTTCTCGCTGCCAATTGGATACTTTTTTTTTTTTTTGAGACAGAGTCT
B3: 13 (nucleic acid, listed as Homo sapiens)
chain: TATCGAAAATTCACCCCCGATATTCACGTAGGTTCTTTTCTATTTTCCCTAAGCGTCGGCAGGTTTGAGAAATAAAGGGACAGAGTACAAAAGAGAGAAATTTTAAAGCTGGGCGTCCGGGGGAGACATCACATGTTGGTAGGTTCCATGATGCCCCACAAGCCGTAAAAACCAGCAAGTTTTTATTAGTGATTTTCAAAAGGGGAGGGAGTGTACGAATAGGTGTGGGTCACAGAGATCACGTGCTTCACAAGGTAATAGAATATCACAAGGCAAATGGAGGCAGGGCGAGATCACAGGACCACAGGACCGGGGTGAAATTAAAATTGCTAATGAAGTTTTGGGCACCATTGTCATTGATAACATCTTATCAGGAGACAGGGTTTGAGAGACAACCGGTCTGACCAAAATTTATTAGGTGGGAATTTCCTCGTCCTAATAAGCCTGGGAGTGCTATGGGAGACTGGGGCTTATTTCATCCCGTAGAGGCAACCATAAAAGACAGGCCCAAGCGGCCATTTAGAGCCTCCCAGGACATTCTCTTTCTCAGGGTGTTCCTTGCTGAGAAAAAGAATTCAGATATTTCTCCATTTGCTTTTGAAAGAAGAGAAATATGGCTCTGTTCCCGGCTCACGGCGCAGATTTAAGGTTATCTCCTTTTCCCTGAACAATTGCTGTTATCCTGTTCTTTTTTCAAGGTGCCCAGATTTCATATTGTTCAAACACACATGCTTACAATTTGTGCAGTTAAGCAATATCACAGGGTCCTGAGGGACATACATCCTCCTCAGCTGACAGGATTAAGAGATTAAAGTAAAGACAGGCATAGGAAATCACAAGGGTATTGATTGGGGAAGTGATAAGTGTCCATGAAATCTTCACAATTTATGTTTAGAGATTGCAGTAAAGACAGGCATAAGAAATTATAAAAGTATTAATTTGGGGAACTAATAAATGTCCATGAAATCTTCACAATCCACGTTCTTCTGCCATGGCTTCAGCCGGTCCCTCCGTTCGGGGTCCCTGACTTCCCGCAACA
B4: 21 (nucleic acid, listed as Homo sapiens)
chain: CAGCGCAAGTAATATATCCTGGAATTGGAAGCAGAATGGGAACTATGGACTCAGTGAAGATTGTTCTGGACATTATTTGATTCTTCTTTCTCGCTGCCAATTGGATACTTTTTTTTTTTTTTTGAGACAGAGTCT
B5: 24 (nucleic acid, listed as Homo sapiens)
chain: GATGAATGCACATATCACAAAAAGTTTCTCAGATTGCTTCTGTCTAGATTTTATGTGAAGTTATTTCCTTTTCTACCATAGAACCCAAAGCACTTATAATGTCCCCTTGCAGATTCTACAAAAAGAATGTTTCAAAACTGCTCAATCAAAAGAAAGGTTCAAATTTGTGAGATGAATGCTCGCATCACCAAGAAGTTTCTCAAAATACTTCTGTCTAGTTTTTATGTGAAGACATTTCTTTTTCCGTGATAGGTCTCAAAATGATCAAAATTTCCACTTGCAAATTCTACAAAAAGAGAGTTTCAAAGCTGCTCAATCAAAAGAAAGGTTTATATCTGTGAGATGAACACACACTTCACAAAGCAGTTTCTAAGATTTCTTCTGCCTAGATTTTATGTAATGATATTTCCTTTTCTACCATACTTTGCAAACTGCTCCAAATGTCCACCTGTAGATTCTACAAAAACAGTGTTTCCAAACTGCTCAATCAAAAGAAAGGTTAACTCTGTGAGATGAACTCACACATCACAAAGAAGTTTCTCAGAATTCTTCTGTCTAGTTCTAATGTGAAGATATTTCCTTTTGGACCAGAGGCCCCAAGGCTATCGAAATGTCCCCTTGTAGATTCTACAAAAAGAGTATTTCAAAACTGGTCCATCAAGAGAAAGGCTCAACTCTGGGAGATGAATGCACACATCACAAAGAAGTTTCTCAGAATGCTTCTATCTAGTTTTTACATGAAGCTATTTCCTTTTCCACCATAAGCCTCAAAGCGCTCCAAATGTCCACTTGCAGGTTCTGCAAAAAGAGAGTTTCCAAAGTTCTCAATCAAAAGAAACGGTTAACTCTGTGAGATAAATGCACACATCACAAAGAAGTTTCTCAGAATTTTTCTGTCTAGTTTTTGTGTGAAGATATTTCATTTTC
B6: 23 (nucleic acid, listed as Homo sapiens)
chain: TTCATCTTACAGAGATAAACATTTATCTTGATTCAGCAGTTTGGAAACACTGTTTTTATCCATTCTGTGAATGGACATTTGGGAGTTCATTAAGGCACACATGAAAAGGTGTATATCCCAGGGTAAAAACTAGAAGGAAGCTATCTGAGAAACCACTCTGTGGTGTGTGCATTGATCTCGCTGATTTAAAGCTTTCTTTTGATTCAGCAGTTTGGAATCACTGTTTGTGCTCATTCTGTAAATGGATATTTGGGAGCTCATTGAGGTCAATGGCAAAAAAGTGAATAACTGAGGATAAAAACTAGAAATAAGCTATCTGAGAAACGGATTTATGATGTGTGCATTCATCTCGCAAAATTAAACATTTCTTTTCCTTCAACAGTTTGGAAACACGGTTTTTATAGGATCTGCAAAGGGATATTTTGGAGCACATTGAGGTCTATGGTGTAAAAGAAAATATCTTCAGATAAAACCTAGAAAGAAGCTTTCTGAGAAATTGCATTTTGATGTGTGCATTCATCTCACAGAGTTAATACTTTTTTTTGATTCACCAGTGTGGATACACTGTTTTTGTCCATTCTGCTAATGGACCTTTGGGGGCTCATTTAGGCCAATGGCAAAAAAGTGAATATCCCAGGATAAAAACTAGAAGGAAGGTATCTGAGAAACTGCTATGTGATGTGTGCCATCATCTCACAGTCTTAAAAGTTTCTTTTCATTCACCAGTTTGGAAACAGTGTTTTTGTAGAATCTGCAAAGTCATATTTTTGAGT

For the first data set, the system named is MM1s (multiple myeloma) cell genome. Put plainly: ctDNA coculture with MM1s cells, whole genome sequencing: genomic insertion sites, transposons at insertion points and SNVs (multiple myeloma). In kind it is cell-based, human. As to conditions: gene at identified genomic insertion site; multiple myeloma. As to the method: The integration of ctDNAs into the host cell genome was evaluated. ctDNA was extracted from patient plasma, cultured for 24 hours with cells of a matching cancer cell type or non-matching cancer cell type, and whole genome sequencing was performed. The cell lines used were MM1s (multiple myeloma, MM) and MIA (pancreatic cancer, PC).
Single nucleotide variants (SNVs) unique to the ctDNA that were found in the host cell genome under matching coculture conditions were identified.
The sequence data was used to reconstruct genomic contigs for each experimental condition by de novo assembly. […] Coculture contigs carrying a ctDNA insertion were identified using NucDiff analysis. BLAST alignment analysis further validated the gain of ctDNA fragments in coculture conditions and identified the transition points of ctDNA insertion (FIGS. 3A-3C). […] The remaining 20% inserted into a chromosomal location distinct from their site of origin.
Experiments were designed to identify the presence of transposons in ctDNA fragments. To map ctDNA genomic junctions more precisely, a PACBIO probe was ligated to multiple myeloma and pancreatic cancer ctDNA samples to label their 5′ and 3′ ends. Whole-genome sequencing of DNA from cells with ctDNA genomic integration was done using the Illumina platform. De novo assembly was performed on the sequencing output. ctDNA contigs containing PACBIO adaptor were then matched to those contigs containing inserted ctDNA sequences identified in the coculture experiments. Transposable element on ctDNA sequences at the insertion points (<100 nucleotides from transition point between cell and ctDNA) were detected and classified using RepeatMaster.
A search was conducted for transposons that preferentially target cells of matching tumor types. The lists of transposons identified at the ctDNA insertion point in matching and mismatched coculture conditions were compared (e.g., MM ctDNA with MM cells or PC cells). Transposons were selected that were uniquely or preferentially inserted in the matching conditions.
In multiple myeloma, AluSp, MER11, MER11C, AluJb, and L2a, among other subfamilies of retrotransposons were identified at the MM ctDNA insertion sites (FIG. 5B and TABLE 7).
Whole-genome sequencing and Whole exon sequencing: ctDNA was extracted from 10 MM and 10 PC patients. DNA from CD138 (+) cells and from cell lines used in in vitro experiments (MM1s and MIA) was extracted using Blood & Cell Culture DNA Mini Kit (Quiagen, MD). DNA from […] paraffin embedded pancreatic tumors was obtained using QIAamp DNA FFPE Tissue Kit Print (Qiagen, MD).
After extraction, ctDNA was ligated to the PACBIO adaptor ([…]) using the ABM DNA Library Prep Kit for Illumina Sequencing (Applied Biological Materials Inc. Canada). PACBio-labeled ctDNA and regular ctDNA were subjected to standard methods for library preparation and sequencing using Illumina and Agilent protocols, respectively. Applied Biological Materials Inc. prepared the libraries and performed whole-exon and -genome sequencing. The average target coverage was 50×.
Identification of transposable elements and its nucleotide variants: To determine the locations of transposable-like regions in contigs, sequences were analyzed and transposable elements (TEs) were identified and classified using RepeatMasker version 4.1.0 and the Dfam database (release 3.1) of repetitive DNA families was used as a reference for identifying repeats in ctDNA contig sequences that were part of qualifying structural events. For each repeat sequence identified by RepeatMasker, the overall frequency of the specific repeat (e.g., for AluSp or L1) and their parent class (e.g., SINE) was computed.
Once the TE elements were identified, hit repeats/TE sequences, unique contigs for all samples, and insertion sequence were aligned with MAFFT software version. […]
With B1, the Gene result is listed as “AK311573”.
In the case of B2, the Gene result is on record as “TBL1XR1”.
As for B3, the Gene entry was “none”.
On to B4, for which the Gene result is on record as “TBL1XR1”.
The same measure, in the same setting: to B5 belongs “AK311573”.

The same data set, now with this note: identified genomic insertion site, chromosome; multiple myeloma.
As to B1, the Location entry is “Chr21”.
B6: the Location entry is recorded as “Chr16”.
Still for that read-out and setting: to B2 belongs “Chr3”; to B3, “Chr14/ and Chr3”.
For B4, the Location entry is “Chr3”.
In the case of B5, the Location result is “Chr21”.

Staying with this data set, now noted: identified genomic insertion site; multiple myeloma.
The molecule B1 displayed a Chr position of 10752909.
The same measure, in the same setting: next, B6: 32534349; B2: 176878250; B4: 176878250.
With B5, the Chr position was determined as 10749086.

Staying with this data set, now noted: number of single nucleotide variants (SNVs or SNPs) identified; multiple myeloma.
B1: the “No. SNP” value is on record as 24.
With B6, the “No. SNP” value is recorded as 9.
For the molecule B2, the “No. SNP” value worked out at 1.
Take B3: the “No. SNP” value is reported as 4.
The same measure, in the same setting: to B4 belongs 1.
Consider B5, for which the “No. SNP” value came to 49.
